The source of these data is article PMC6859858.

In series [1] the target is T1, CPSF-160;WDR33;CPSF-30;Fip1 (human;human;human;human, UniProt Q10570;Q9C0J8;O95639;Q6UN15 1-1443;1-425;1-269;159-200, |||). In words: competition fluorescence polarization. (In general: Polarisation of emitted light reports the rotation of a fluorescent probe.)
Target sequence in this assay (Q10570 whole entry, chain 1 of 3): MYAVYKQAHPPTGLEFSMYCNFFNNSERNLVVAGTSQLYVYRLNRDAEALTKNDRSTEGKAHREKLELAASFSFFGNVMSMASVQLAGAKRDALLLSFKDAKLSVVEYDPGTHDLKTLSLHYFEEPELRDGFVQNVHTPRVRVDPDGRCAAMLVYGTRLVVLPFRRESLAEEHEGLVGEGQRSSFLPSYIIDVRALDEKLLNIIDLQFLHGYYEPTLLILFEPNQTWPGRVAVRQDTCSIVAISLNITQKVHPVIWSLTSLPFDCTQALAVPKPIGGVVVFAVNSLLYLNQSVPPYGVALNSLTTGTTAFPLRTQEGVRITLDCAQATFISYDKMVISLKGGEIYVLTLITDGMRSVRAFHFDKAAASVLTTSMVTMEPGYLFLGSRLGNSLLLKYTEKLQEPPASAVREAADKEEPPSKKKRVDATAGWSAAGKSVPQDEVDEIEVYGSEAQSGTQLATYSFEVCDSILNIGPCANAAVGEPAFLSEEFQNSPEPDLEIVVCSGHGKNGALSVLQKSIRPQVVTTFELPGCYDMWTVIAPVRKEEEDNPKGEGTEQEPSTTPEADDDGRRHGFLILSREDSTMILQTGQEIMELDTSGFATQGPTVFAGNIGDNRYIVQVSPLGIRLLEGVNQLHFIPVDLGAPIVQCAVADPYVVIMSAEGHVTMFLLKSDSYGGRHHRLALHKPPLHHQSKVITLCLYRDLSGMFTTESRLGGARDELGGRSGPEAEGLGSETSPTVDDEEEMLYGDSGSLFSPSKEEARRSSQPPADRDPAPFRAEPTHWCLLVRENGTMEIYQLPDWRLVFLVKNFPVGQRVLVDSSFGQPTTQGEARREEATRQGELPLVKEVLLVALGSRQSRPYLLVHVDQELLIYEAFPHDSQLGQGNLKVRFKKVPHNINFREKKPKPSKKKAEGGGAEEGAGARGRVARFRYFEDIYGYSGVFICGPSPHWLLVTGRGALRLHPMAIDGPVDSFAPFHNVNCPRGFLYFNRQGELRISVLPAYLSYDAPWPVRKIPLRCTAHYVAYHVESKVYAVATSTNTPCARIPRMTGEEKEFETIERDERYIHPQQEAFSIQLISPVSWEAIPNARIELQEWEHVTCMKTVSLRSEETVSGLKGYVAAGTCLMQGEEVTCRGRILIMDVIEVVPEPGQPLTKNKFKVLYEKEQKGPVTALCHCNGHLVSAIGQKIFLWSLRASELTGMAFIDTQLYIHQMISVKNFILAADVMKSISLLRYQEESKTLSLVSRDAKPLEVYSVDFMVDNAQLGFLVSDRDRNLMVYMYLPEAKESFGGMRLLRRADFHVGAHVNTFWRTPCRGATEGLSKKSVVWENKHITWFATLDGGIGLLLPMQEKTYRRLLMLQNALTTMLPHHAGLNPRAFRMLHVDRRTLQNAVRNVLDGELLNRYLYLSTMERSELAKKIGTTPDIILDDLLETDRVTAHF
Target sequence in this assay (Q9C0J8 1-425, chain 2 of 3): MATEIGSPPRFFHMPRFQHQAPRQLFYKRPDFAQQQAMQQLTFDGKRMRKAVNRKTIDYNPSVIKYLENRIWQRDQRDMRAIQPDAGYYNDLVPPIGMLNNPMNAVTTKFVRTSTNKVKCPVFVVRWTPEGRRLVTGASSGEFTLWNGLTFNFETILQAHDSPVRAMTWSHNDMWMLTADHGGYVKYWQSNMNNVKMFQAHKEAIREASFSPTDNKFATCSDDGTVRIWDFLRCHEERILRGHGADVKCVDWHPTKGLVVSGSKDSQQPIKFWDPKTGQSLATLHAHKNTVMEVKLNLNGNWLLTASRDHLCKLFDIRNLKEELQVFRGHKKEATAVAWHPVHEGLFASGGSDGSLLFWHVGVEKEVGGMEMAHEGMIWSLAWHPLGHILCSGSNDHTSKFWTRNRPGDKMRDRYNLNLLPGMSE
Target sequence in this assay (O95639 whole entry, chain 3 of 3): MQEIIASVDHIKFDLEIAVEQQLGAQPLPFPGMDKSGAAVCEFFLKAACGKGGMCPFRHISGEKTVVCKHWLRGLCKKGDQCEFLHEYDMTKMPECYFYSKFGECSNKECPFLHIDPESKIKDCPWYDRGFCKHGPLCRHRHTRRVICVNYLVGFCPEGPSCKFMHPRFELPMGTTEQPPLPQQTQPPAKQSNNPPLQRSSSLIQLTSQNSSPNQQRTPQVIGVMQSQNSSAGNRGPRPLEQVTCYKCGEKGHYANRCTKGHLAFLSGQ
The target of series [2] is T1, CPSF-160;WDR33;CPSF-30;Fip1. In words: fluorescence polarization.
Target sequence in this assay (Q10570 whole entry, chain 1 of 4, one chain of several): as the sequence (Q10570 whole entry, chain 1 of 3) above
Target sequence in this assay (Q9C0J8 1-425, chain 2 of 4, one chain of several): as the sequence (Q9C0J8 1-425, chain 2 of 3) above
Target sequence in this assay (O95639 whole entry, chain 3 of 4, one chain of several): as the sequence (O95639 whole entry, chain 3 of 3) above
The target is the same in series [3]. In words: competition fluorescence polarization. This is another data set of the same source.
Target sequence in this assay (Q10570 whole entry, chain 1 of 4, one chain of several): as the sequence (Q10570 whole entry, chain 1 of 3) above
Target sequence in this assay (Q9C0J8 1-425, chain 2 of 4, one chain of several): as the sequence (Q9C0J8 1-425, chain 2 of 3) above
Target sequence in this assay (O95639 whole entry, chain 3 of 4, one chain of several): as the sequence (O95639 whole entry, chain 3 of 3) above
The target in series [4] is T2, Fip1 (human, UniProt Q6UN15 159-200).
T2 chain: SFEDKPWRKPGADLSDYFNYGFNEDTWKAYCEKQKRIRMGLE
In words: fluorescence polarization.

Series [5] concerns the target CPSF-160;WDR33;CPSF-30 (human;human;human, UniProt Q10570;Q9C0J8;O95639 1-1443;1-425;1-269, ||). In words: fluorescence polarization.
In series [6] the target is CPSF-160;WDR33;CPSF-30 F84A;Fip1 (human;human;human;human, UniProt Q10570;Q9C0J8;O95639;Q6UN15 1-1443;1-425;1-269;159-200, ||F84A|). In words: fluorescence polarization.
Series [7] concerns the target CPSF-160;WDR33;CPSF-30 H70A;Fip1 (human;human;human;human, UniProt Q10570;Q9C0J8;O95639;Q6UN15 1-1443;1-425;1-269;159-200, ||H70A|). Kind of series: fluorescence polarization.
Series [8] deals with CPSF-160;WDR33;CPSF-30 F112A;Fip1 (human;human;human;human, UniProt Q10570;Q9C0J8;O95639;Q6UN15 1-1443;1-425;1-269;159-200, ||F112A|). In words: fluorescence polarization.
The target in series [9] is CPSF-160;WDR33;CPSF-30 R73A;Fip1 (human;human;human;human, UniProt Q10570;Q9C0J8;O95639;Q6UN15 1-1443;1-425;1-269;159-200, ||R73A|). Kind of series: fluorescence polarization.
The target in series [10] is T1, CPSF-160;WDR33;CPSF-30;Fip1. In words: fluorescence polarization. The source holds these as a separate data set.
Target sequence in this assay (Q10570 whole entry, chain 1 of 4, one chain of several): as the sequence (Q10570 whole entry, chain 1 of 3) above
Target sequence in this assay (Q9C0J8 1-425, chain 2 of 4, one chain of several): as the sequence (Q9C0J8 1-425, chain 2 of 3) above
Target sequence in this assay (O95639 whole entry, chain 3 of 4, one chain of several): as the sequence (O95639 whole entry, chain 3 of 3) above
Series [11] has the same target. Kind of series: fluorescence polarization. The source holds these as a separate data set.
Target sequence in this assay (Q10570 whole entry, chain 1 of 3): as the sequence (Q10570 whole entry, chain 1 of 3) above
Target sequence in this assay (Q9C0J8 1-425, chain 2 of 3): as the sequence (Q9C0J8 1-425, chain 2 of 3) above
Target sequence in this assay (O95639 whole entry, chain 3 of 3): as the sequence (O95639 whole entry, chain 3 of 3) above

In the case of AAUAAAC (ssRNA) [7-mer AAUAAAC, unlabeled], the binding signal in series [1] is 35 fold higher Kd than 11-mer.
As to CAAUAAACAAC (ssRNA) [11-mer AAUAAA PAS, FAM], the Kd (commonly the equilibrium constant for the complex coming apart) in series [2] turned out to be 0.32 ± 0.04 nM.
Still for that read-out and setting: the value for AAUAAA (ssRNA, 3' phosphate linking the FAM) [6-mer AAUAAA, FAM] was 8.05 ± 0.45 nM.
In [3], CAAUAAAC (ssRNA) [8-mer AAUAAA, unlabeled] displayed a Kd of 57 ± 18 nM.
Consider AACCUCCAAUAAACAAC (ssRNA) [17-mer AAUAAA PAS], for which the binding result in series [4] is listed as “no binding”. The equilibrium dissociation constant (Kd) is 0.25 ± 0.05 nM in series [5], 0.28 ± 0.07 nM in [2] and 0.19 ± 0.03 nM in series [10]. Besides, the binding signal in [6] was 8 fold higher Kd than wild type; in series [7] it was 90 fold higher Kd than wild type; in series [8], 140 fold higher Kd than wild type; in series [9], 17 fold higher Kd than wild type; in series [11], 3 fold higher Kd than maximal binding.
